Source: IntAct's records for PubMed 16127465

B1: Growth/differentiation factor 5 (Homo sapiens), P43026 (parent)
chain: MRLPKLLTFLLWYLAWLDLEFICTVLGAPDLGQRPQGTRPGLAKAEAKERPPLARNVFRPGGHSYGGGATNANARAKGGTGQTGGLTQPKKDEPKKLPPRPGGPEPKPGHPPQTRQATARTVTPKGQLPGGKAPPKAGSVPSSFLLKKAREPGPPREPKEPFRPPPITPHEYMLSLYRTLSDADRKGGNSSVKLEAGLANTITSFIDKGQDDRGPVVRKQRYVFDISALEKDGLLGAELRILRKKPSDTAKPAAPGGGRAAQLKLSSCPSGRQPAALLDVRSVPGLDGSGWEVFDIWKLFRNFKNSAQLCLELEAWERGRAVDLRGLGFDRAARQVHEKALFLVFGRTKKRDLFFNEIKARSGQDDKTVYEYLFSQRRKRRAPLATRQGKRPSKNLKARCSRKALHVNFKDMGWDDWIIAPLEYEAFHCEGLCEFPLRSHLEPTNHAVIQTLMNSMDPESTPPTCCVPTRLSPISILFIDSANNVVYKQYEDMVVESCGCR

Variants of: B1
Conditions: with bmr1a_human BMPR1A

effect of a mutation on the interaction	Variant
increasing interaction strength	R438L

Variants of: B1
Conditions: with bmr1b_human BMPR1B

effect of a mutation on the interaction	Variant
decreasing interaction strength	L441P
